Measured values published in patent publication US6124262A, “Compositions and methods for reducing adhesiveness of defective red blood cells” (The Regents of the University of California, dated 2000).
Values belong to the molecule of their own block, whether it stands above or below them. Where no end group is shown, it is not given here. [ ]: non-standard residue; d: D form.

How the values were obtained:
[1] = test system: P. falciparum-infected erythrocytes (rosetting); type: cell-based; conditions: FIG. 3B; read-out: IC50, competitive inhibition of rosetting
Protocol: (§1) The Gambian FCR-3 strain of P. falciparum was cultured according to the literature method [Trager, W. & J. Jensen (1976) Science 193:673-675]. Cultures were synchronized at the ring stage by sorbitol lysis of mature forms [Lambros, C. & J. P. Vanderberg (1980) J. Parasitology 65:418-20]. Knobless parasite cultures were produced from a knobby FCR-3 line and maintained as described previously [Crandall, I. E. et al. (1994) Cell Adhesion & Communication 2(6):503-510].
(§2) Cytoadherence assays were carried out as described previously [Udeinya et al. (1981), supra; Crandall et al. (1991), supra] except that BTS buffer (50 mM Bis Tris, 130 mM NaCl, pH 6.6) was substituted for BTC buffer (i.e. the Ca^+ was omitted from the cytoadherence assay buffer). Rosetting was measured as described previously [Crandall et al. (1994), supra].
(§3) In order to determine if the action of the antibody was due to the non-competitive removal of the sequence FSFCETNGLEYI [SEQ ID NO:44], the antibody's epitope, or whether it was the result of steric hindrance or induced conformational change of the protein associated with the antibody's binding, the effect of adding increased amounts of the peptide FSFCETNGLE [SEQ ID NO:26] to rosetting and cytoadherence assays was determined. […] FIG. 3A illustrates the results of adding the indicated peptides to the incubation medium of a cytoadherence assay. […]

[2] = test system: P. falciparum-infected erythrocytes; type: cell-based; conditions: FIG. 3A; read-out: IC50, competitive inhibition of cytoadherence
Protocol: as §1, §2, §3

[3] = target: CD36 (Homo sapiens (Human), UniProt P16671); assay: cell-based or functional assay
[4] = target: human band 3 protein (human, UniProt P02730); assay: cell-based or functional assay

Molecule: FSFCETNGLE [Peptide 2f, FSFCETNGLE]
- IC50 [1]: 3000 nM
- IC50 [2]: 4 µM

- 50% inhibition of sickle cell binding to HUVEC [3]: 4 µg/mL
Molecule: GHPLQKTY [peptide 3d, GHPLQKTY]

- 50% inhibition of sickle cell binding to HUVEC [4]: 4 µg/mL
- IC50 of inhibition of cytoadherence of P. falciparum-infected erythrocytes [4]: 4 µM
- IC50 of inhibition of rosetting of P. falciparum-infected erythrocytes [4]: 3 µM
Molecule: FSFCETNGLE [peptide 2f, FSFCETNGLE]

- 50% inhibition of sickle cell binding to HUVEC [3]: 4 µg/mL
Molecule: G[dH][dP][dL][dQ][dK][dT][dY] [D-isomer of peptide 3d]
